Consider 18 sequences from the DeepSol protein solubility set.

The data set can be described thus: soluble on expression in E. coli; label from the status in PepcDB or PDB records.
For the sequence “MSRQDPRTIEFLESVGKGEIPPSLVQQYPGKEIDFKVNRHHEEYVAPKMKPFGGSGVRLGNVVPTVLGQSSSSATTAGTSSATTDHNPDHTAENEAKQLEDAKKELSTNMNEPTTNIQIRLPNNQRLVGIFNHSHTLEAVRTFICTARPDMIYAPFQMMAAYPPKPFEDESQTLKDANVLNSVVAVKILPTTN”, the “soluble on expression in E. coli” value was “not soluble”.

Take “MSRRGLEREGGKPVSSDAKGLKRVDVRLKWDPSPWDRPPHHLDIIATTYAADAPHGRPVYVVQFDKRSPDGTINMSRHSRTGQGFGFVEEMTFELDRLSPSIARVIVGVAIHQDNGHKTFDDVSNTGVVVAEGYRELLTDGFERVAGATAATVAEFTRNASGAWEFREAVRGFDSDPVLFATEMGSAPRP”: the “soluble on expression in E. coli” value is reported as “soluble”.

With “MSRVERLPNGLVVALEERDFPGVAFQLLVPAGAVNDPEGMEGAAALLEGWLWKGAGDLDARALAQALDALGVRRSSGAGLEYTAFAAAFLPEVLDEVFRLYALLLTRPRLPEEGLEAVGHVALQALLSLEDQPARKLLSELRRKVFRSPHGREPLGREEGLKGARAEALKADYRRRYTPKGAILAVAGGVSWERLRAALEPFLAWEGEEALYPAPELSEPHRFVLRRPTAQVQIGLAYPDVGPEDPGFYAARLALEVLSGGMSSRLFTEVREKRGLVYAVSAFPAGVKGQGLLMAYAGTTKERAGETLEVLRAEVERLAEGVTEEELFRAKVGLKTALVMADESIRSRAASMARDLYMLGRVRSLSEIEAAIEGTSLEAVNAFLRAHPYRDPWVGLLGEVEDV”, the “soluble on expression in E. coli” value was “soluble”.

For “MSSCVNTSQTGPKKKISFIIRDEHEYSNRSAVSALQYDAQNGRLFTGGSDTIIRTWSVPHHKDAFSARGGVRSPGKNSPVQYQGSLEQHTDWVNDMILCGHGKILISASNDTTVKVWNIERDNKHGFIDCIRTHKDYVSCLAYAPIVEKAVSASFDHNIFVYDINANFKTVNNLIGCKDSIYSLATTPNLSLVLGAGTEKCIRLFDPRTNEKIMKLRGHTDNVRALVVNDDGTRALSAGSDATIRLWDIGQQRCIATCIAHEEGVWTLQVDSSFTTVYSAGKDKMVVKTPLYDFTKSQLLFKEEAPVKKLLLSEKDNPVSLWVGTWKSDIKRWSIRPSAQLSIGGDEDGPSTSNANHSVSASSSPPVTFKYIRVKDQKGQQSTPELVIPGAPAIKKHAMLSDKRHVLTRDSDGNVALYDVLAARKIKDYGKRIFEEVVDENSRQVYIPSWFVVDSKSGMLQITLDELDALSSWLSSKDAGFDDNDRETKLNYGGMMLRSLFERWPPCKMTNVDAADADDVQKATLNFISLPEHTPLIICEGNGRPLYRLLVGDAGKEFEANELAQIAPMWVIDAIERNQLPKFNKMPFYLLPHPSTNPKQPKKDRLSATEMLQVKKVMEHVYEKILSTNDDITVGSIPLNQIHTKMEMYCNDQRLEPDMDLRTVKHLYWKQSGELLLHYKPVK”, the “soluble on expression in E. coli” value is “not soluble”.

As to “MSSFSESALEKKLSELSNSQHSVQTLSLWLIHHRKHAGPIVSVWHRELRKAKSNRKLTFLYLANDVIQNSKRKGPEFTREFESVLVDAFSHVAREADEGCKKPLERLLNIWQERSVYGGEFIQQLKLSMEDSKSPPPKATEEKKSLKRTFQQIQEEEDDDYPGSYSPQDPSAGPLLTEELIKALQDLENAASGDATVRQKIASLPQEVQDVSLLEKITDKEAAERLSKTVDEACLLLAEYNGRLAAELEDRRQLARMLVEYTQNQKDVLSEKEKKLEEYKQKLARVTQVRKELKSHIQSLPDLSLLPNVTGGLAPLPSAGDLFSTD”, the “soluble on expression in E. coli” value was “soluble”.

With “MSSGDQNRGGVADKALQLVLEMKRNPDVLPPYNTELVRQCYQKIDELFQKNAAVVEKIRAGLPHDSTLLQPRLAAMCHIRRCMMAYVNERKNRIRSFRWKYGGALPASVRNALCDAEIQFFNEYSSTLARFQSNLGEGGVNLLLHSAPPKSLFVQVRALEDYGEFETSDGTQVQLSKDSLHSLPRQDCEMLIRQGVLELVH”, the “soluble on expression in E. coli” value is recorded as “not soluble”.

Regarding “MSSGNRQAPMPPPKPRNLGRGQFYQQGGYLTPQDSDTDSGISADCDQGSPRAAAGFGGTGFNGTVNGQQVNSQRRIPDLPPGAYQNYRSHSSADYLTPNSARKIASYSTTPRRLPLQPQQQAPATATKAKYRVRFADEVDSGASTSSGTSSTHISPRNDPQEMLMNSAVGAPQITSTFQQPASYMQNSSDAQYKMNKIEYPPVSRTPPVACSSRTGTLQRTPNRRLPISSTPQPQPTYADQMQSLPEPPPYTIAMQRLRSVEQQPQESFRDAFIRKSVNDTLQRRYRQRSSSLPRGNKSYYEGIDIYDAQPPIRPLPQQQTSLMTVANQLPGSLDNLHINNLNMRRRKLPTAPLMGSSCQLHLDNSDELTAYRALQFQMMQDELQRQQPPPQSFERPTLLRRTNMPQQQSFNIPHITTTGPPPPAMGLSVPVQYDQGEYGTQSVRAQLVALDQRGFRRVLVEKMMPGPFGFYIATGVVAGQRAGIFISRVSLPSLSPMLTVGDEIIYVDEEYVKGRSLEYVQSLRIFEFQTELITEEPPHKQVIFM”, the “soluble on expression in E. coli” value is listed as “not soluble”.

“MSSIASNTFTKTVESVPVDIKYDSDKYFISGYSYDAEVYLTATTQLALTTETTSDTRHFKLVADLSNFGPGTSHVPIQVKNLPDGMSAQVSPSTLTATIGKKASKTFDVVANITPDKLANGYEVKKVSLDETKVEVTSSEDIINQIDHVQAVLEGDDNLSDDYDGNLVLQAVSSNGTILASSISPAKVHAKISLRKLSKSVPVKLELTGDKASNVSSISYSFDRGHVTIVGSQEAMDKIDSITVPVDISQVTEDTSKTLELKAEGVTVQPSTVKVNLKVTQKLEHHHHHH”: the “soluble on expression in E. coli” value was “soluble”.

Turning to “MSSINITNVTVLDNPAPFVNPFQFEISYECLTSLKDDLEWKLIYVGSAEDETYDQVLESVLVGPVNVGNYRFVLQADSPDPLKIREEDIIGVTVLLLTCSYMDQEFIRVGYYVNNDYDDEQLREEPPTKVLIDKVQRNILTDKPRVTKFPINFHPENEQTLGDGPAPTEPFADSVVNGEAPVFLEQPQKLQEIEQFDDSDVNGEAIALLDQPQNLQET”, the “soluble on expression in E. coli” value is “soluble”.

With “MSSIVEHVVLFKLNDDDVDSGKINSMVNGINELVNLDQVLHLYCGSIHRLITTTASDFTHVLHSRYRSKEDLNAYAIHPDHVRVVKESESIREDIMAVDWIAEQAPE”, the “soluble on expression in E. coli” value was “not soluble”.

For “MSSLNKLAIDQLNLAGKRVLIRVDFNVPLKDGKITNNQRIAAAVPTIQHALSNGAKSVVLMSHLGRPDGRRQDKYTLKPVAEELKALLKKDVLFLDDCVGSEVEAACADPAPGSVILLENLRYHLEEEGKGVDASGAKVKADSAAVKKFRESLTKLGDIYVNDAFGTAHRAHSSMVGVEHSQRASGFLLKNELSYFSKALDNPARPFLAILGGAKVADKIQLIKNLLDKVNEMIIGGGMAYTFLKVAQGVKIGNSLYDEEGAKIVNELLEAAKAKGVQIHLPVDFVIADKFAEDATSKTVTAEEGVPDGHMGLDVGPESSKIFAAAIQRAKTIVWNGPAGVFEFDKFATGTKSLMDEVVKATAAGAITIIGGGDTATAAKKYNTEDKVSHVSTGGGASLELLEGKVLPGVDALSPAQ”, the “soluble on expression in E. coli” value is given as “soluble”.

Turning to “MSSNDVLAQIAGLAKAAAELENDFSTDSEMQQDSEICDEVDAELFDDFETKPSSRKESSGTSRRTRMAHRELQGLQFANPGDEMSRFLPDSVDIISTNRSKRVAAEKQADLRDEPLHHDKTGKLSVTAKGQTLFFDLCDCLVVECDGCHWPCKQCKSRKCLIGCRQNRKEMVIRVEEMYTVTEAPGPVVNINPYFPGQIKD”, the “soluble on expression in E. coli” value is on record as “not soluble”.

For “MSSPKVGFVSLGRPKALVDSERILTQLRTEGYEVTPEYNDADVVVVNTCGFIDSAKAESLEAIGEAIAENGKVIVTGCMGVEESVIRQVHPSVLAVTGPQQYEEVVRAVHGVAPPRQDHNPYLDLVPPQGVKLTPRHYAYLKISEGCNHRCSFCIIPSMRGDLVSRPVGDVLSEAERLVRAGVKELLVISQDTSAYGVDIKYRSGFWNGRPVKTRMTELCAALSELGVWTRLHYVYPYPHVDEVIGLMADGKVLPYLDIPFQHASPRILRAMKRPAFEDKTLARIKRWREECPDLTLRSTFIVGFPGETEEDFQYLLDWMSEAQLDRVGCFQYSPVEGAPANTLDNPVPDEVKQERWERFMEHQQAISTARLSTRVGREIDVLIDSVDEEGAVGRSSADAPEIDGCVYVDSEQPLKAGDMVRVRVTDSDEYDLWGERIALEHHHHHH”, the “soluble on expression in E. coli” value is given as “soluble”.

Take “MSSQKSSHHKADSKMEQDNNRKAWISQPSGLNFVWGGDSRYWVIPKEPRMPAELKMVSWLEVTGSFDKIEPGKTYRIGFKISFKPDATGWDKAPVFMSAKIGKKGKTVWKRIKSVSQNFGILKGGSEPVNIPDESDGLFEILVSPTALNQDTKLQFGLYEVWTGRWKTGLLIHEAFVQEV”: the “soluble on expression in E. coli” value is listed as “soluble”.

In the case of “MSSQSSSADGKVTLKFFHRWPKEPEKSYFEEVVKEFEKDHPDIDIQIEAVLNDSYKDKIKVMLGTTSPPDIYFSWSDEFAFKFIRGNKALDLSSYYKNDTDWSSQLVQSQITPFTYENKQYGVPWQMDAKSFFYNKDIFQKLNLDPPKTWDELIDVSKKLKEHGYTPISFGTKATWTISHYIGTLNQRMVDEKTREKDYNAKTGEFTDEGYVKALEKLQELMPYFNKHVNSVDHEYVRQQFKSGKSAMIYAETAEIKLVEPVNLGMFPFPEISGQKGSSEALTGAPEGFMISSRTKHPKEAMEFLQFLTSKRMGEKLVKDVGKYSAVQGTATEENATAIQREAVQHIVDAKSMVPWFDMDVDVEVADAYLTGVQQMLGGDMTPQQVMKAVQKAAKQVRASAELEHHHHHH”, the “soluble on expression in E. coli” value is “soluble”.

With “MSSRTANSSSRNDESLRTGQHKENPNYWGFANFPNQVFRRAVKNGFDFTLMVVGRSGLGKSTFINTLFLAEINNLNEKESAPTHPHPSTVRVEEKLVKLVENSVSLNLTLVDTPGFGDAVNNSKCWEPIVNYVESKFFEQFCEETRIDRGEKIVDKCVHLCLYFIEPSGHGLKPIDIELMKHLHGRVNIVPVISKADCLTRDELLRFKKQIVKDAETAEIKLYKFPELEDPYTDKVAIEKLRKALPFAIIGSNMLKEKDGKKIRYREYPWGTVEVENMQHNDFLTLRDMIIRTNLIDMIDVTRNVHYENFRFRQMEGLPKNEKNRDPFTHLEEERRQKEQDLDEKRNTLEKVFTEKTSARKKRSDERMSALEELEQQNKQKIDAKRAEIIRLRHEISELKNGNLTSSQTSLAMYNENNHSQNSTLNSTTKSSPPPTSATSSSSGTMKKRMGGLGLFNRN”, the “soluble on expression in E. coli” value is reported as “not soluble”.

Consider “MSSSANSIKVVARFRPQNRVEIESGGQPIVTFQGPDTCTVDSKEAQGSFTFDRVFDMSCKQSDIFDFSIKPTVDDILNGYNGTVFAYGQTGAGKSYTMMGTSIDDPDGRGVIPRIVEQIFTSILSSAANIEYTVRVSYMEIYMERIRDLLAPQNDNLPVHEEKNRGVYVKGLLEIYVSSVQEVYEVMRRGGNARAVAATNMNQESSRSHSIFVITITQKNVETGSAKSGQLFLVDLAGSEKVGKTGASGQTLEEAKKINKSLSALGMVINALTDGKSSHVPYRDSKLTRILQESLGGNSRTTLIINCSPSSYNDAETLSTLRFGMRAKSIKNKAKVNAELSPAELKQMLAKAKTQ”, for which the “soluble on expression in E. coli” value was “soluble”.

On to “MSSSDHIHVPDGLAESYSRSGGEEGRAWIAGLPALVARCVDRWELKRDGGVRSGEASLVVPVLRADGTRAALKLQMPREETTAALIGLRAWGGDGMVRLLDHDEESSTMLLERLDGSRTLASVEDDDEAMGVLAGLLNRLHSVPAPPGLRGLGEIAGAMVEEVPSAVDSLADPEDRSRLRGWASAVAELVGEPGDRVLHWDLHYENVLAAEREPWLAIDPEPLVGDPGFDLWPALDTGWERIEATGDARRVVRRRFDLLTEALELDRGRAAGWTLARLLQNTLWDIEDGLTAIAPSQIAVAEALAKP”, for which the “soluble on expression in E. coli” value is “not soluble”.
